The target of this test is T1, human complement C1q (human, UniProt P02745 23-245; P02746 28-253; P02747 29-245).
T1 construct: also called human C1q
Nature of the test: C1q binding ELISA, GnGn against wt plants (FIG. 9).

T1 sequence (P02745 23-245 limits assumed, chain 1 of 3): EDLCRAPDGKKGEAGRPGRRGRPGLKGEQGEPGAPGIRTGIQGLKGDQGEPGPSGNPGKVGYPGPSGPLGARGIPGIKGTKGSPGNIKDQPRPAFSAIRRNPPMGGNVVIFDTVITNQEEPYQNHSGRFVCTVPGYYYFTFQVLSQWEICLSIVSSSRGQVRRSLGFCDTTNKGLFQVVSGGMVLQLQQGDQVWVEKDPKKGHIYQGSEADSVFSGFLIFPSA
T1 sequence (P02746 28-253 limits assumed, chain 2 of 3): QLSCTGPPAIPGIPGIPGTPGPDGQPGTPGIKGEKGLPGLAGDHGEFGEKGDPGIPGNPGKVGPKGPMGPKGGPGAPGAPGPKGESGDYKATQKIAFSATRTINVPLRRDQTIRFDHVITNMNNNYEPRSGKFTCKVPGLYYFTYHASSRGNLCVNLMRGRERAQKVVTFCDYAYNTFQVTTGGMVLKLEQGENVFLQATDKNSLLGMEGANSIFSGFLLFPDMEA
T1 sequence (P02747 29-245 limits assumed, chain 3 of 3): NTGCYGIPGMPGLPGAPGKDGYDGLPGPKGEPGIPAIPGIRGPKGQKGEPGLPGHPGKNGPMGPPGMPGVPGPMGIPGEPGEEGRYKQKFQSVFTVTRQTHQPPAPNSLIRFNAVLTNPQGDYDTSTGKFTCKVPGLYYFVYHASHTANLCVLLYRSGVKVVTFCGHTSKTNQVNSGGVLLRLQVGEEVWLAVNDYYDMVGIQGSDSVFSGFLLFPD

B1: 6D8 antibody (full 6D8 mAb without ZE3 fusion, construct HL) (antibody)
heavy: not shown
light: DVLMTQSPLSLPVTLGQPASISCRSSQSIVHSNGNTYLEWYLQKPGQSPKLLIYKASNRFSGVPDRFSGSGSGTDFTLKISRVEAEDAGVYYCLQGSHVPSTFGGGTKVEIKTVAAPSVFIFPPSDEQLKSGTASVVCLLNNFYPREAKVQWKVDNALQSGNSQESVTEQDSKDSTYSLSSTLTLSKADYEKHKVYACEVTHQGLSSPVTKSFNRGEC
Turning to B1, the binding result is given as “binds”.
